Reference: PMC5024437

Biological target: T1, mSos1 (human (endogenous in A549)), Q07889
T1 chain: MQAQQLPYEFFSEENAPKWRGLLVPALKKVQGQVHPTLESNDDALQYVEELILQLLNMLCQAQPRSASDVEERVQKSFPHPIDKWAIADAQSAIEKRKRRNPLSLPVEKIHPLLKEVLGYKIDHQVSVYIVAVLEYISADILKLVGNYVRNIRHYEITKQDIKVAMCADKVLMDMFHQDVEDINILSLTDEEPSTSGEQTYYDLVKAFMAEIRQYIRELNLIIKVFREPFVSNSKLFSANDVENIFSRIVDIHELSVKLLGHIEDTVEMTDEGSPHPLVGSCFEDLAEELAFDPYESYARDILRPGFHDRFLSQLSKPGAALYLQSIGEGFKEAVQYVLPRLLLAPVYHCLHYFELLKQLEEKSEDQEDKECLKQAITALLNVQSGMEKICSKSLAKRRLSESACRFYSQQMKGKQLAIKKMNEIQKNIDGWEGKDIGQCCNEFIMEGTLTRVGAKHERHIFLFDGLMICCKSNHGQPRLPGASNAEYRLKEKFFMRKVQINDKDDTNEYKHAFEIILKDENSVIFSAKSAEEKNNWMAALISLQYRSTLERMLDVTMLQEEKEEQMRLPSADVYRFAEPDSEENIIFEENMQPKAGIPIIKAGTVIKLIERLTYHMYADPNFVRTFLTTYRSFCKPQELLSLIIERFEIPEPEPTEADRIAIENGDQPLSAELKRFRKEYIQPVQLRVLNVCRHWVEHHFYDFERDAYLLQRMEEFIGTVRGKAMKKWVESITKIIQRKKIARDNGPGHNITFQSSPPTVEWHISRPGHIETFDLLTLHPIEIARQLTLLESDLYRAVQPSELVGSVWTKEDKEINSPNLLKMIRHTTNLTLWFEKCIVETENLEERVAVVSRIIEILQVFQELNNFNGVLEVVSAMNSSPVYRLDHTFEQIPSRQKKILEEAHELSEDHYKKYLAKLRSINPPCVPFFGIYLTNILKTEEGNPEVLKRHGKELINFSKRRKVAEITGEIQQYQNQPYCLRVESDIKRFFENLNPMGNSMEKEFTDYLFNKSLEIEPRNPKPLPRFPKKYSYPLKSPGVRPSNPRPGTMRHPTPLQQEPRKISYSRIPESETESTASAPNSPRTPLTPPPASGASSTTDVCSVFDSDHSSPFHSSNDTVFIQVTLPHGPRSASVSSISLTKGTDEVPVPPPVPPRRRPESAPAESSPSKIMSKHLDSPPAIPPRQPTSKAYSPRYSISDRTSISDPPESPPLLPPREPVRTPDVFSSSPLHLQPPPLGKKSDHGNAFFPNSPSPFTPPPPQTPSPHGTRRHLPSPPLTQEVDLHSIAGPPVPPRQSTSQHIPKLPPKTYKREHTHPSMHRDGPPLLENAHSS
Experiment: co-IP; A549 and A549 + ITSN-1s (stable myc-ITSN-1s) cell lysates, 500 ug total protein, lysis buffer 50 mM Tris-HCl pH 8.0, 150 mM NaCl, 1 % NP-40; IP with 3 ug mSos1 or Cbl Ab and protein A/G, WB with Rac1 or Eps8 Ab; densitometry as percentage of control
Conditions: remark: other sources report otherwise

percent decrease of the co-precipitated complex in A549 + ITSN-1s cells against A549 cells: 54%
B1: Eps8, Q12929 1-822 (natural protein)
chain: MNGHISNHPSSFGMYPSQMNGYGSSPTFSQTDREHGSKTSAKALYEQRKNYARDSVSSVSDISQYRVEHLTTFVLDRKDAMITVDDGIRKLKLLDAKGKVWTQDMILQVDDRAVSLIDLESKNELENFPLNTIQHCQAVMHSCSYDSVLALVCKEPTQNKPDLHLFQCDEVKANLISEDIESAISDSKGGKQKRRPDALRMISNADPSIPPPPRAPAPAPPGTVTQVDVRSRVAAWSAWAADQGDFEKPRQYHEQEETPEMMAARIDRDVQILNHILDDIEFFITKLQKAAEAFSELSKRKKNKKGKRKGPGEGVLTLRAKPPPPDEFLDCFQKFKHGFNLLAKLKSHIQNPSAADLVHFLFTPLNMVVQATGGPELASSVLSPLLNKDTIDFLNYTVNGDERQLWMSLGGTWMKARAEWPKEQFIPPYVPRFRNGWEPPMLNFMGATMEQDLYQLAESVANVAEHQRKQEIKRLSTEHSSVSEYHPADGYAFSSNIYTRGSHLDQGEAAVAFKPTSNRHIDRNYEPLKTQPKKYAKSKYDFVARNNSELSVLKDDILEILDDRKQWWKVRNASGDSGFVPNNILDIVRPPESGLGRADPPYTHTIQKQRMEYGPRPADTPPAPSPPPTPAPVPVPLPPSTPAPVPVSKVPANITRQNSSSSDSGGSIVRDSQRHKQLPVDRRKSQMEEVQDELIHRLTIGRSAAQKKFHVPRQNVPVINITYDSTPEDVKTWLQSKGFNPVTVNSLGVLNGAQLFSLNKDELRTVCPEGARVYSQITVQKAALEDSSGSSELQEIMRRRQEKISAAASDSGVESFDEGSSH
